Measurements published in patent publication US20250092143A1 (UNIVERSITY OF SOUTHERN CALIFORNIA, published 2025).

Key:
[1] = molecular target: T1, αCD3-αEGFR-PD-1-OX40L GEMINI-Exos (human); assay: flow cytometry on BT-20 cells, anti-HA detection
T1 construct: Engineered exosome from Expi293F cells co-transfected with the αCD3-αEGFR-PDGFR TMD and PD-1-CD9-OX40L constructs; Both fusions sit on the same exosome; also called genetically engineered multifunctional immune-modulating exosomes
Protocol: BT-20 cells were treated with 100 U/mL IFN-γ (BioLegend) for 2 days to induce expression of PD-L1. […] Briefly, cells (300,000 cells per tube) were stained with 100 μg mL⁻¹ of exosomes for 30 minutes at 4° C. Cells were washed three times with PBS containing 2% FBS and stained with an anti-HA antibody (2-2.2.14, from Thermo Fisher Scientific) for 30 minutes at 4° C. […] Thereafter, cells were washed and resuspended in PBS containing 2% FBS, followed by analysis using a BD Fortessa X20 flow cytometer. Data were processed by FlowJo_V10 software (Tree Star Inc., Ashland, OR).

[2] = molecular target: T1, αCD3-αEGFR-PD-1-OX40L GEMINI-Exos; assay: assay not named
Protocol: FIG. 3. […] (A) Immunoblot analysis of purified exosomes. […] Data are shown as mean±SD of duplicates. […] The levels of secreted IL-2 were measured by ELISA.
ELISA analysis of binding of engineered exosomes to ligands and receptors. […] High-binding 96 well plates (Greiner Bio-One, Monroe, NC) were coated with various concentrations of exosomes overnight at room temperature. Following extensive washing with PBST, wells were blocked with PBS containing 1% BSA for 2 hours at room temperature, followed by extensive washing with PBST. Corresponding ligands or receptors ([…]; PD-L1-hFc and PD-L2-hFc from PeproTech, Inc. and OX40-hFc from BioLegend) were added and incubated for 2 hours at room temperature, followed by extensive washing with PBST. Goat anti-human IgG-HRP was subsequently added for 1-hour incubation at room temperature, followed by extensive washing. QuantaBlu fluorogenic peroxidase substrate (Thermo Fisher Scientific, MA) was then added.

Binder	binding result [1]	binding result [2]
PD-L2 on IFN-γ stimulated BT-20 cells (ligand, human, UniProt Q9BQ51 20-273, looked up, whole, on cells; BT-20 cells also carry PD-L1 and EGFR; also called PD-L2^+ BT-20 cells) LFTVTVPKELYIIEHGSNVTLECNFDTGSHVNLGAITASLQKVENDTSPHRERATLLEEQLPLGKASFHIPQVQVRDEGQYQCIIIYGVAWDYKYLTLKVKASYRKINTHILKVPETDEVELTCQATGYPLAEVSWPNVSVPANTSHSRTPEGLYQVTSVLRLKPPPGRNFSCVFWNTHVRELTLASIDLQSQMEPRTHPTWLLHIFIPFCIIAFIFIATVIALRKQLCQKLYSSKDTTKRPVTTTKREVNSAI	binds	–
PD-L2-hFc (Fc fusion, human, UniProt Q9BQ51 20-220, looked up, Bought from PeproTech; also called PD-L2-Fc; not shown: human Fc (hFc) of the bought reagent) LFTVTVPKELYIIEHGSNVTLECNFDTGSHVNLGAITASLQKVENDTSPHRERATLLEEQLPLGKASFHIPQVQVRDEGQYQCIIIYGVAWDYKYLTLKVKASYRKINTHILKVPETDEVELTCQATGYPLAEVSWPNVSVPANTSHSRTPEGLYQVTSVLRLKPPPGRNFSCVFWNTHVRELTLASIDLQSQMEPRTHPT	–	binds
OX40-hFc (Fc fusion, human, UniProt P43489 29-214, looked up, Bought from BioLegend; also called OX40-Fc; biotinylated OX40-hFc; not shown: human Fc (hFc) of the bought reagent) LHCVGDTYPSNDRCCHECRPGNGMVSRCSRSQNTVCRPCGPGFYNDVVSSKPCKPCTWCNLRSGSERKQLCTATQDTVCRCRAGTQPLDSYKPGVDCAPCPPGHFSPGDNQACKPWTNCTLAGKHTLQPASNSSDAICEDRDPPATQPQETQGPPARPITVQPTEAWPRTSQGPSTRPVEVPGGRA	–	binds
